Experiments:
Test in all cases: holdup assay
Design in all cases: key: below the threshold = too weak to quantify, mostly under pKd 3.1 to 4
Conditions in all cases: plain residues with an end cap or a label only (N-terminal biotin on a linker: ado-ado)
[1] = biological target: T1, DLG3_1, Q92796
T1 sequence (Q92796 125-227, limits assumed, looked up): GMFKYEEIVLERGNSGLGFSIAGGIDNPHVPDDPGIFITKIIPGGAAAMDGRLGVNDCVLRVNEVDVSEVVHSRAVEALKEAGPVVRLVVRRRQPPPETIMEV

[2] = biological target: T2, DLG3_2, Q92796
T2 sequence (Q92796 221-321, limits assumed, looked up): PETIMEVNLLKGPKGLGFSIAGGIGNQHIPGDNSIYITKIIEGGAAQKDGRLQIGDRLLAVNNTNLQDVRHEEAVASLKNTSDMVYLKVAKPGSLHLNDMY

[3] = biological target: DLG4_1, P78352
[4] = biological target: T3, FRMPD1, Q5SYB0
T3 sequence (Q5SYB0 52-145, limits assumed, looked up): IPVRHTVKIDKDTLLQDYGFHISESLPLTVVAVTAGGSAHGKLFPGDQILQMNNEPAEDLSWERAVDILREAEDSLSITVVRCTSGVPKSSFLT

[5] = biological target: FRMPD2_1, Q68DX3
[6] = biological target: FRMPD2_2, Q68DX3
[7] = biological target: GOPC, Q9HD26
[8] = biological target: GORASP2, Q9H8Y8
[9] = biological target: T4, GRIP1_5, Q9Y3R0
T4 sequence (Q9Y3R0 568-668, limits assumed, looked up): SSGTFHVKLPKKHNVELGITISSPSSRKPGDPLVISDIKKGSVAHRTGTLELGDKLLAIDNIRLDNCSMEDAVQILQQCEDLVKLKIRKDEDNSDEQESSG

[10] = biological target: HTRA2, O43464
[11] = biological target: Inadl_3, Q8NI35
[12] = biological target: Inadl_6, Q8NI35
[13] = biological target: Inadl_8, Q8NI35
[14] = biological target: T5, LNX2_2, Q8N448
T5 sequence (Q8N448 334-432, limits assumed, looked up): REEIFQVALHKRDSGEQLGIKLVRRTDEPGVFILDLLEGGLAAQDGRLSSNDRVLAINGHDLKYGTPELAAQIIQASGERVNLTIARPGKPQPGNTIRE

[15] = biological target: MAGI2_4, Q86UL8
[16] = biological target: MAGI2_5, Q86UL8
[17] = biological target: MAST1, Q9Y2H9
[18] = biological target: MAST2, Q6P0Q8
[19] = biological target: T6, MPDZ_12, O75970
T6 sequence (O75970 1857-1958, limits assumed, looked up): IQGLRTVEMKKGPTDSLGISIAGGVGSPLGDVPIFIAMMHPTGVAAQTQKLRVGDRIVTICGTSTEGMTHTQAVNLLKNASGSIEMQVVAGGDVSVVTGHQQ

[20] = biological target: T7, PARD3B_1, Q8TEW8
T7 sequence (Q8TEW8 196-299, limits assumed, looked up): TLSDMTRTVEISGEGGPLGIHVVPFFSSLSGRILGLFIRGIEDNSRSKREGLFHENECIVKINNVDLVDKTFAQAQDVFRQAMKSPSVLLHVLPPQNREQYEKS

[21] = biological target: PICK1, Q9NRD5
[22] = biological target: PTPN3, P26045
[23] = biological target: T8, RAPGEF6, Q8TEU7
T8 sequence (Q8TEU7 525-625, limits assumed, looked up): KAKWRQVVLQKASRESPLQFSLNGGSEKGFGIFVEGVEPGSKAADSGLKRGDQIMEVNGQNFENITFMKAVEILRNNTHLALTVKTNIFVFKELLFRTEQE

[24] = biological target: SCRIB_3, Q14160
[25] = biological target: T9, SNTB1, Q13884
T9 sequence (Q13884 107-205, limits assumed, looked up): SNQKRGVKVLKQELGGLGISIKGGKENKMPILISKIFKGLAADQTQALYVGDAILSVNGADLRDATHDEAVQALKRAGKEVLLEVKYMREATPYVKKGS

[26] = biological target: TJP2_1, Q9UDY2
[27] = biological target: T10, TX1BP3, O14907
T10 sequence (O14907 10-122, limits assumed, looked up): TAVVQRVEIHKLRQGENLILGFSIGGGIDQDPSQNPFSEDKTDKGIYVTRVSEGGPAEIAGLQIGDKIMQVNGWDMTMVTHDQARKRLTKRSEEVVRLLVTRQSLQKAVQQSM

PTPN3, P26045, sequence (P26045 505-587): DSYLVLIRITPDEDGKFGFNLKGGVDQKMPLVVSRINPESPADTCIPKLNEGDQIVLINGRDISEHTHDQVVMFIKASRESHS
MAGI2_4, Q86UL8, sequence (Q86UL8 772-865): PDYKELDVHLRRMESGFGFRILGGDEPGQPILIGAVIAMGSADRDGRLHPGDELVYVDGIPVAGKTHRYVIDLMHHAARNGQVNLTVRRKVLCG
FRMPD2_1, Q68DX3, sequence (Q68DX3 770-861): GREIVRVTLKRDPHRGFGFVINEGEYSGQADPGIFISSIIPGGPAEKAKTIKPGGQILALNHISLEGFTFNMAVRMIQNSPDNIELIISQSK
DLG4_1, P78352, sequence (P78352 62-152): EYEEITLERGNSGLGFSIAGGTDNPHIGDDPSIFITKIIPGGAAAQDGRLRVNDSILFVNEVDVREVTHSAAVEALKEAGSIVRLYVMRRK
TJP2_1, Q9UDY2, sequence (Q9UDY2 24-128): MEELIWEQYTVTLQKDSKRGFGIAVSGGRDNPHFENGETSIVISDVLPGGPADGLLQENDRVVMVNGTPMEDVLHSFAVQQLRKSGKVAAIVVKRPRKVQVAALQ
FRMPD2_2, Q68DX3, sequence (Q68DX3 944-1038): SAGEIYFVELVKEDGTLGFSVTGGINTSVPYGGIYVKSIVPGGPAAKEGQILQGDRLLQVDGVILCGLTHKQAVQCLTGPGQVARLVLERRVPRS
Inadl_6, Q8NI35, sequence (Q8NI35 1058-1167): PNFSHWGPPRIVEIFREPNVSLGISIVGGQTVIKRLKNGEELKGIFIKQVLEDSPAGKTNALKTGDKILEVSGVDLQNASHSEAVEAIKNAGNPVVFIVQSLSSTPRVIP
PICK1, Q9NRD5, sequence (Q9NRD5 17-115): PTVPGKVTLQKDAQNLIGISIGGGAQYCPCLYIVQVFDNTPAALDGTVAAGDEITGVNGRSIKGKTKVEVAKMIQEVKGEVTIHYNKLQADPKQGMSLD
HTRA2, O43464, sequence (O43464 355-458): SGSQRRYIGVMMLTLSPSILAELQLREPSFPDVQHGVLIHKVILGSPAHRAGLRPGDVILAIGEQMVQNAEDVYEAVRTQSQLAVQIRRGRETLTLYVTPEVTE
MAST1, Q9Y2H9, sequence (Q9Y2H9 962-1065): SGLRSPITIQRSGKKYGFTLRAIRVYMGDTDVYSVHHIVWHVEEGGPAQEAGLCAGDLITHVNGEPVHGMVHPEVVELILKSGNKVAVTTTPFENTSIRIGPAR
MAST2, Q6P0Q8, sequence (Q6P0Q8 1099-1202): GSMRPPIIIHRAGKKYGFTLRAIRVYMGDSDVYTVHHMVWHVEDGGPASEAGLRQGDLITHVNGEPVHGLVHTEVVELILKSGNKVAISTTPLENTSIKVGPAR
MAGI2_5, Q86UL8, sequence (Q86UL8 915-1017): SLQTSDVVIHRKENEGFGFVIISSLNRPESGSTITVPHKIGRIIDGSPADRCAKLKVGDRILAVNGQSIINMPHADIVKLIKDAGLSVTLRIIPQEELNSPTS
SCRIB_3, Q14160, sequence (Q14160 999-1103): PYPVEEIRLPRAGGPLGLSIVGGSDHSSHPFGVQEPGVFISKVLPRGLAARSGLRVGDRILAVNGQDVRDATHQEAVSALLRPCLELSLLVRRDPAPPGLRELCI
Inadl_3, Q8NI35, sequence (Q8NI35 359-469): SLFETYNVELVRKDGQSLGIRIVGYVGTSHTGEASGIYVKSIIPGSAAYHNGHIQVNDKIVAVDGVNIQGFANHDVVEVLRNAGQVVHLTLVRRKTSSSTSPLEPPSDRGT
Inadl_8, Q8NI35, sequence (Q8NI35 1425-1530): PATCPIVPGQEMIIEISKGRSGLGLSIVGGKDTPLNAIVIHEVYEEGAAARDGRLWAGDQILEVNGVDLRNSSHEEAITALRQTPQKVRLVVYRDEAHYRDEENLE

## GQETPLNTFC [MAP7D2, Q96T17]
[1]
  pKd: below the threshold
[2]
  pKd: 3.93
[3]
  pKd: below the threshold
[4]
  pKd: below the threshold
[5]
  pKd: below the threshold
[6]
  pKd: below the threshold
[7]
  pKd: below the threshold
[8]
  pKd: below the threshold
[9]
  pKd: below the threshold
[10]
  pKd: below the threshold
[11]
  pKd: below the threshold
[12]
  pKd: below the threshold
[13]
  pKd: below the threshold
[14]
  pKd: below the threshold
[15]
  pKd: below the threshold
[16]
  pKd: below the threshold
[17]
  pKd: 3.79
[18]
  pKd: 4.21
[19]
  pKd: below the threshold
[20]
  pKd: below the threshold
[21]
  pKd: below the threshold
[22]
  pKd: 4.38
[23]
  pKd: below the threshold
[24]
  pKd: below the threshold
[25]
  pKd: below the threshold
[26]
  pKd: below the threshold
[27]
  pKd: 4.04

## RPGFASESKV [ADRB1, P08588]
[1]
  pKd: 3.62
[2]
  pKd: 3.61
[3]
  pKd: 4.03
[4]
  pKd: below the threshold
[5]
  pKd: below the threshold
[6]
  pKd: 3.5
[7]
  pKd: 3.64
[8]
  pKd: below the threshold
[9]
  pKd: below the threshold
[10]
  pKd: below the threshold
[11]
  pKd: below the threshold
[12]
  pKd: below the threshold
[13]
  pKd: 3.73
[14]
  pKd: below the threshold
[15]
  pKd: below the threshold
[16]
  pKd: below the threshold
[17]
  pKd: 3.66
[18]
  pKd: 5.01
[19]
  pKd: below the threshold
[20]
  pKd: below the threshold
[21]
  pKd: below the threshold
[22]
  pKd: 4.32
[23]
  pKd: below the threshold
[24]
  pKd: 3.49
[25]
  pKd: 4.35
[26]
  pKd: below the threshold
[27]
  pKd: 4.72

## QYPGSPDSWV [PKP4, Q99569]
[1]
  pKd: 3.97
[2]
  pKd: 4.13
[3]
  pKd: 4.26
[4]
  pKd: below the threshold
[5]
  pKd: below the threshold
[6]
  pKd: 4.34
[7]
  pKd: below the threshold
[8]
  pKd: 4.39
[9]
  pKd: below the threshold
[10]
  pKd: 4.05
[11]
  pKd: 3.63
[12]
  pKd: 4.21
[13]
  pKd: 4.16
[14]
  pKd: 4.69
[15]
  pKd: 4.32
[16]
  pKd: below the threshold
[17]
  pKd: 3.97
[18]
  pKd: 4.09
[19]
  pKd: 4.69
[20]
  pKd: 3.56
[21]
  pKd: below the threshold
[22]
  pKd: 4.96
[23]
  pKd: below the threshold
[24]
  pKd: 4.48
[25]
  pKd: 4.36
[26]
  pKd: 4.25
[27]
  pKd: 4.98

## DFRHKSSFVI [JAM3, Q9BX67]
[1]
  pKd: below the threshold
[2]
  pKd: 4.16
[3]
  pKd: below the threshold
[4]
  pKd: below the threshold
[5]
  pKd: below the threshold
[6]
  pKd: below the threshold
[7]
  pKd: below the threshold
[8]
  pKd: 5.21
[9]
  pKd: below the threshold
[10]
  pKd: below the threshold
[11]
  pKd: 4.26
[12]
  pKd: below the threshold
[13]
  pKd: below the threshold
[14]
  pKd: 4.15
[15]
  pKd: below the threshold
[16]
  pKd: below the threshold
[17]
  pKd: below the threshold
[18]
  pKd: 3.76
[19]
  pKd: 3.49
[20]
  pKd: 5.03
[21]
  pKd: below the threshold
[22]
  pKd: 3.84
[23]
  pKd: below the threshold
[24]
  pKd: below the threshold
[25]
  pKd: below the threshold
[26]
  pKd: below the threshold
[27]
  pKd: below the threshold
